In PMC10294656:

Molecular target: human apolipoprotein-B mRNA-editing catalytic polypetide-like 3A protein (human) (UniProt P31941)
Experiment: co-IP; HepaRG cells cotransfected with pLenti6.3-Apobec3A-V5 and pEYFP-Apobec3A, mock-infected or infected with HAdV wt (50 ffu/cell), harvested 24 and 48 hpi; whole-cell lysates; YFP-Apobec3A held on ChromoTek GFP-Trap agarose beads, V5-Apobec3A detected by Western blot; V5 signal normalised to input and β-actin

Sequence of human apolipoprotein-B mRNA-editing catalytic polypetide-like 3A protein, P31941 1-199 (enzyme; other documents disagree on this pair) (P31941 whole entry): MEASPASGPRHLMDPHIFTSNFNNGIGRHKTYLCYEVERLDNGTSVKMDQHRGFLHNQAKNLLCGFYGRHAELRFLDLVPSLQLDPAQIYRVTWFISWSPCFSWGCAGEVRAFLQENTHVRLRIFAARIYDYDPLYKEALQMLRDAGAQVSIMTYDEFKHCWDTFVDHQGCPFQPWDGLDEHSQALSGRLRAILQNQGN

- fold increase of co-precipitated V5-Apobec3A at 48 h after HAdV infection against mock: 10 fold
Substance: human apolipoprotein-B mRNA-editing catalytic polypetide-like 3A protein, P31941 1-199 (enzyme; other documents disagree on this pair)
